Experimental data as given in patent US20240285759A1 (published 2024).

T1: NRAS Q61R (RAS Q61R; the filing also names KRAS and HRAS comprising this peptide) peptide on HLA-A*01:01 (human)
T1 peptide: ILDTAGREEY

T2: NRAS wild type (RAS wild type) peptide on HLA-A*01:01 (human)
T2 peptide: ILDTAGQEEY

T3: NRAS Q61K (RAS Q61K; the filing also names KRAS and HRAS comprising this peptide) peptide on HLA-A*01:01 (human)
T3 peptide: ILDTAGKEEY


How the values were obtained:
Experiment in all cases: cytokine release
[1] = target: T1, NRAS Q61R (RAS Q61R; the filing also …)
[2] = target: T2, NRAS wild type (RAS wild type) peptide …
[3] = target: T3, NRAS Q61K (RAS Q61K; the filing also …)

Row | binding result [1] | binding result [2] | binding result [3] | Binder
1 | recognises | no recognition |  | TCR2 (TCR, V domains shown) Valpha: GESVGLHLPTLSVQEGDNSIINCAYSNSASDYFIWYKQESGKGPQFIIDIRSNMDKRQGQRVTVLLNKTVKHLSLQIAATQPGDSAVYFCAENIRLTGANNLFFGTGTRLTVIP Vbeta: GAVVSQHPSWVICKSGTSVKIECRSLDFQATTMFWYRQFPKQSLMLMATSNEGSKATYEQGVEKDKFLINHASLTLSTLTVTSAHPEDSSFYICSARLLSYEQYFGPGTRLTVT
2 | recognises | no recognition | recognises | TCR1 (TCR, V domains shown) Valpha: GQQLNQSPQSMFIQEGEDVSMNCTSSSIFNTWLWYKQEPGEGPVLLIALYKAGELTSNGRLTAQFGITRKDSFLNISASIPSDVGIYFCAGRDDAGNMLTFGGGTRLMVKP Vbeta: GAVVSQHPSRVICKSGTSVKIECRSLDFQATTMFWYRQFPKKSLMLMATSNEGSKATYEQGVEKDKFLINHASLTLSTLTVTSAHPEDSSFYICSASVRMNTEAFFGQGTRLTVV
